# Test results published in article PMC2834417.
# “And” between values parts separate entries of the source, which are not always exact repeats. Equal entries are not always repeated.
# Molecular target: Wild type Cav1.2 channel with EGFP fused to its C-terminus (rabbit) (UniProt P15381)
# Assay: FRET or BRET
# Sequence of UniProt P15381 (P15381 whole entry, the tested form may be a part): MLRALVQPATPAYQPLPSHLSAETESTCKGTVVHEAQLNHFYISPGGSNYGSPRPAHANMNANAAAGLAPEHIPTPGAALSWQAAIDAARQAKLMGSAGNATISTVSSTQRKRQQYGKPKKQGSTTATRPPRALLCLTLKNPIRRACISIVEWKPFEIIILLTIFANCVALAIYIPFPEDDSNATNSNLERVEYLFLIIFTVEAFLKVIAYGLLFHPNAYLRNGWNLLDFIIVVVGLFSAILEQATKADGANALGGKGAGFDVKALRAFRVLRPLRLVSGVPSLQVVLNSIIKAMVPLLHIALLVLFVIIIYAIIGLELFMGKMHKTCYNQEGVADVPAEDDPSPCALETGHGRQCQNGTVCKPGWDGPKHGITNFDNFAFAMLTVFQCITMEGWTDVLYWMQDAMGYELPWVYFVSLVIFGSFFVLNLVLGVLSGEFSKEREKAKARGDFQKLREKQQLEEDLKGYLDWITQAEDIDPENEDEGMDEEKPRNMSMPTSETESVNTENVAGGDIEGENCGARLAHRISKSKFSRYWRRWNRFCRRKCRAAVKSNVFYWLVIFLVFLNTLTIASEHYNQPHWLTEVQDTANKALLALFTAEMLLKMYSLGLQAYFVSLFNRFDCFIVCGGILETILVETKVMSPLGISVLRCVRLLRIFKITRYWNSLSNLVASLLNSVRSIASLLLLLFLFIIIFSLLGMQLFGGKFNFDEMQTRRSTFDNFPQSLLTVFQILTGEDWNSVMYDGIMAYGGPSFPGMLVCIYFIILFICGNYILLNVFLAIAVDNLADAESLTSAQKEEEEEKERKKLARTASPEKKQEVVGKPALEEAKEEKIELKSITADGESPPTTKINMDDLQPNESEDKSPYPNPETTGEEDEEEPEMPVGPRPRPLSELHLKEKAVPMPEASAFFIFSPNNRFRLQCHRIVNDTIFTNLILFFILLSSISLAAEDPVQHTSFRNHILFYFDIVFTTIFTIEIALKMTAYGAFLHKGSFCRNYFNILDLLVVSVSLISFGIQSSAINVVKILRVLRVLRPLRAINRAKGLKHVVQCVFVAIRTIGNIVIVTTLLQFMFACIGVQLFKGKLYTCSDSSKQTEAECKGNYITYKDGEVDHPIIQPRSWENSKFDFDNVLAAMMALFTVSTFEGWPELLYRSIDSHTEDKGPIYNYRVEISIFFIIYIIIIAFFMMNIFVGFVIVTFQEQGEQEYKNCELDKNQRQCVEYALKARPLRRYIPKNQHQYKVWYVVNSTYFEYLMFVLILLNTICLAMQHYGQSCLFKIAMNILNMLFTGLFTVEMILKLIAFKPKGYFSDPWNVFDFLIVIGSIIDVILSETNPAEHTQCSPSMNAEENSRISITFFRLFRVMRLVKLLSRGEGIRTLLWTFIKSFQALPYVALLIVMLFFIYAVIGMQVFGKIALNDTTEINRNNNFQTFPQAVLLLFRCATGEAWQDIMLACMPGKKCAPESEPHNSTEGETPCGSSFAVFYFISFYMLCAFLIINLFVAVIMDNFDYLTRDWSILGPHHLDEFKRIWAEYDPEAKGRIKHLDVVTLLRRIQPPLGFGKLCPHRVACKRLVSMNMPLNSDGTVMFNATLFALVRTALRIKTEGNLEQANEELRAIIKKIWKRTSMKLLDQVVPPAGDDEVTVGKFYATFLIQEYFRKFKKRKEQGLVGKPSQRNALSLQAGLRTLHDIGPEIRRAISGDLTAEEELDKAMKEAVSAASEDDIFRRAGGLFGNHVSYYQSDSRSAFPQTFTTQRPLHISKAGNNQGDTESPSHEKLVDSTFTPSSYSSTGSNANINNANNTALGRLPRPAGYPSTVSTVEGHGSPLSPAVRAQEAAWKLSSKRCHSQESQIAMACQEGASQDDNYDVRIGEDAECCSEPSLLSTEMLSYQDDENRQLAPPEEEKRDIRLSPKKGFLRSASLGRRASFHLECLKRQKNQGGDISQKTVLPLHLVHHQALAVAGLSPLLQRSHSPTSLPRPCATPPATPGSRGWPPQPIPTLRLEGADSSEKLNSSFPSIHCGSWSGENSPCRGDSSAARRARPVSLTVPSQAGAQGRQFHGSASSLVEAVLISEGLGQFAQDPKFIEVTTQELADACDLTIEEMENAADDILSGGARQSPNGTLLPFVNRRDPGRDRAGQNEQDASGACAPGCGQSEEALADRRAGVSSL
substance,measurement,value
Calmodulin fused with tag-RFP (from UniProt P0DP23 1-149) (natural protein),FRET,0.32 and 0.21 and 0.33
